Reference: patent publication US20230074436A1 (DENALI THERAPEUTICS, published 2023)
No end group written: not given here. *: point of attachment. Biotin = O=C1N[C@H]2[C@H](CS[C@H]2CCCCC(=O)*)N1

Tests used:
asyn_113-127_119A [1] = molecular target: T1, asyn_113-127_119A (human); test: Ala-scan peptide ELISA, row E, run 1
T1 construct: substitution is already in the entry; also called pep8
T1 peptide: Biotin-LEDMPVAPDNEAYEM

asyn_113-127_124G [2] = molecular target: T2, asyn_113-127_124G (human); test: Ala-scan peptide ELISA, row E, run 1
T2 construct: substitution is already in the entry; also called pep13
T2 peptide: Biotin-LEDMPVDPDNEGYEM

asyn_113-127_116A [3] = molecular target: T3, asyn_113-127_116A (human); test: Ala-scan peptide ELISA, row E, run 1
T3 construct: substitution is already in the entry; also called pep5
T3 peptide: Biotin-LEDAPVDPDNEAYEM

asyn_113-127_118A [4] = molecular target: T4, asyn_113-127_118A (human); test: Ala-scan peptide ELISA, row E, run 1
T4 construct: substitution is already in the entry; also called pep7
T4 peptide: Biotin-LEDMPADPDNEAYEM

asyn_113-127_123A [5] = molecular target: T5, asyn_113-127_123A (human); test: Ala-scan peptide ELISA, row E, run 1
T5 construct: substitution is already in the entry; also called pep12
T5 peptide: Biotin-LEDMPVDPDNAAYEM

asyn_113-127_114A [6] = molecular target: T6, asyn_113-127_114A (human); test: Ala-scan peptide ELISA, row E, run 1
T6 construct: substitution is already in the entry; also called pep3
T6 peptide: Biotin-LADMPVDPDNEAYEM

asyn_113-127_124P [7] = molecular target: T7, asyn_113-127_124P (human); test: Ala-scan peptide ELISA, row E, run 1
T7 construct: substitution is already in the entry; also called pep14
T7 peptide: Biotin-LEDMPVDPDNEPYEM

asyn_113-127_117A [8] = molecular target: T8, asyn_113-127_117A (human); test: Ala-scan peptide ELISA, row E, run 1
T8 construct: substitution is already in the entry; also called pep6
T8 peptide: Biotin-LEDMAVDPDNEAYEM

asyn_113-127_121A [9] = molecular target: T9, asyn_113-127_121A (human); test: Ala-scan peptide ELISA, row E, run 1
T9 construct: substitution is already in the entry; also called pep10
T9 peptide: Biotin-LEDMPVDPANEAYEM

asyn_113-127_119A [10] = molecular target: T1, asyn_113-127_119A; test: Ala-scan peptide ELISA, row H, run 1
asyn_113-127_124G [11] = molecular target: T2, asyn_113-127_124G; test: Ala-scan peptide ELISA, row H, run 1
asyn_113-127_120A = molecular target: T10, asyn_113-127_120A (human); test: Ala-scan peptide ELISA, row H, run 1
T10 construct: substitution is already in the entry; also called pep9
T10 peptide: Biotin-LEDMPVDADNEAYEM

asyn_113-127_127A = molecular target: T11, asyn_113-127_127A (human); test: Ala-scan peptide ELISA, row H, run 1
T11 construct: substitution is already in the entry; also called pep17
T11 peptide: Biotin-LEDMPVDPDNEAYEA

asyn_113-127_122A = molecular target: T12, asyn_113-127_122A (human); test: Ala-scan peptide ELISA, row H, run 1
T12 construct: substitution is already in the entry; also called pep11
T12 peptide: Biotin-LEDMPVDPDAEAYEM

[12] = molecular target: biotinylated human alpha-synuclein (human, UniProt P37840 1-140); test: Ala-scan peptide ELISA, row H, run 1
asyn_113-127_116A [13] = molecular target: T3, asyn_113-127_116A; test: Ala-scan peptide ELISA, row H, run 1
asyn_113-127_118A [14] = molecular target: T4, asyn_113-127_118A; test: Ala-scan peptide ELISA, row H, run 1
asyn_113-127_115A = molecular target: T13, asyn_113-127_115A (human); test: Ala-scan peptide ELISA, row H, run 1
T13 construct: substitution is already in the entry; also called pep4
T13 peptide: Biotin-LEAMPVDPDNEAYEM

asyn_113-127_125A = molecular target: T14, asyn_113-127_125A (human); test: Ala-scan peptide ELISA, row H, run 1
T14 construct: substitution is already in the entry; also called pep15
T14 peptide: Biotin-LEDMPVDPDNEAAEM

asyn_113-127_123A [15] = molecular target: T5, asyn_113-127_123A; test: Ala-scan peptide ELISA, row H, run 1
asyn_113-127_113A = molecular target: T15, asyn_113-127_113A (human); test: Ala-scan peptide ELISA, row H, run 1
T15 construct: substitution is already in the entry; also called pep2
T15 peptide: Biotin-AEDMPVDPDNEAYEM

asyn_113-127_126A = molecular target: T16, asyn_113-127_126A (human); test: Ala-scan peptide ELISA, row H, run 1
T16 construct: substitution is already in the entry; also called pep16
T16 peptide: Biotin-LEDMPVDPDNEAYAM

asyn_113-127_114A [16] = molecular target: T6, asyn_113-127_114A; test: Ala-scan peptide ELISA, row H, run 1
asyn_113-127_124P [17] = molecular target: T7, asyn_113-127_124P; test: Ala-scan peptide ELISA, row H, run 1
asyn_113-127_117A [18] = molecular target: T8, asyn_113-127_117A; test: Ala-scan peptide ELISA, row H, run 1
asyn_113-127 = molecular target: T17, asyn_113-127 (human); test: Ala-scan peptide ELISA, row H, run 1
T17 construct: also called pep1
T17 peptide: Biotin-LEDMPVDPDNEAYEM

asyn_113-127_121A [19] = molecular target: T9, asyn_113-127_121A; test: Ala-scan peptide ELISA, row H, run 1

A450 (asyn_113-127_119A [1]): 0.05 OD
A450 (asyn_113-127_124G [2]): 0.214 OD
A450 (asyn_113-127_116A [3]): 0.296 OD
A450 (asyn_113-127_118A [4]): 0.324 OD
A450 (asyn_113-127_123A [5]): 0.282 OD
A450 (asyn_113-127_114A [6]): 0.273 OD
A450 (asyn_113-127_124P [7]): 0.044 OD
A450 (asyn_113-127_117A [8]): 0.304 OD
A450 (asyn_113-127_121A [9]): 0.249 OD
A450 (asyn_113-127_119A [10]): 0.048 OD
A450 (asyn_113-127_124G [11]): 0.065 OD
A450 (asyn_113-127_120A): 0.063 OD
A450 (asyn_113-127_127A): 0.066 OD
A450 (asyn_113-127_122A): 0.049 OD
A450 [12]: 0.086 OD
A450 (asyn_113-127_116A [13]): 0.071 OD
A450 (asyn_113-127_118A [14]): 0.069 OD
A450 (asyn_113-127_115A): 0.051 OD
A450 (asyn_113-127_125A): 0.047 OD
A450 (asyn_113-127_123A [15]): 0.068 OD
A450 (asyn_113-127_113A): 0.068 OD
A450 (asyn_113-127_126A): 0.07 OD
A450 (asyn_113-127_114A [16]): 0.061 OD
A450 (asyn_113-127_124P [17]): 0.049 OD
A450 (asyn_113-127_117A [18]): 0.071 OD
A450 (asyn_113-127): 0.063 OD
A450 (asyn_113-127_121A [19]): 0.068 OD
B1: 20H4 (antibody, rat IgG2b, V domains shown)
VH: AVQLVESGGGLVQPKESLKISCAASGFTFSNAAMYWVRQAPGKGLELLARIRTKPNNYATYHADSVKGRFTISRDDSQSMVYLHMGNLKTEDTAMYYCTADMATGDYWGPGVMVTVSS
VL: DIQMTQSPPVLSVSVGDRVTLSCKASQNINKNLDWYQQKHGEAPKPLIYSTNNLQTGVPSRFSGSGSGTDYTLTISSLQPEDVATYYCYQYKSAWTFGGGTKLELR
notes: also called clone 20H4; rat 20H4
